Laboratory results: patent US7048919B2, “Osteoclast secreted chemokine and uses thereof” (The UAB Research Foundation, priority 2000, dated 2006)

Columns and labels:
[1] = tested on: Vitamin D receptor binding to the VDRE in MG63 cells; test: Vitamin D receptor binding to the VDRE, electrophoretic mobility shift assay; format: cell-based, human; details: 2 μg/ml mim-1, absence of added 1,25(OH)2 D3
Method: Competitive displacement (CD) of vitamin D receptor interaction by 100× of cold probe. […] CD is competitive displacement as in FIG. 18A and NS is incubaton with 100× NonSpecific probe (vitellogenin estrogen response element), both were included as controls with 2 hr mim-1 extracts.
Double stranded oligonucleotide probe, corresponding to the VDRE from the human osteocalcin promoter, is ^32P-labeled with T4 kinase and incubated with nuclear extracts from MG-63 cells treated with 2 μg/ml of mim-1 for 0, 10, 30, 60 and 120 minutes, respectively. Vitamin D receptor interaction was displaced competitively by 100× of cold probe. The cells were then treated with mim-1 for 2 to 3 hrs and VDR/VDRE supershifted with a 1:5 or 1:10 dilution of VDR polyclonal antibody 4707. Competitive displacement with cold probe and incubaton with 100× vitellogenin estrogen response element as a non-specific probe were included as […] controls with 2 hr mim-1 extracts. VDR/VDRE from MG63 cells was compared to recombinant VDR heterodimer (rVDRhd).

human bone marrow cells = test: FACS analysis of human bone marrow cell cultures (CD14+); format: cell-based; details: 2 μg/ml mim-1, 3 days
Method: Human bone marrow cells were cultured in IMDM with GM-CSF (50 ng/ml), IL3 (10 ng/ml) and 20 ng/ml SCF (controls) for 3 days −/+2 […] mim-1 and analyzed by FACS analysis. The remaining cells were cultured in colony formation assays an additional 14 days with the same growth factors minus or plus 2 μg/ml mim-1. Data is the average −/+ SEM of 3 separate experiments.
Human bone marrow cells were cultured in IMDM with GM-CSF (50 ng/ml), IL3 (10 ng/ml) and […] SCF (controls) for 3 days with or without 2 μg/ml mim-1. The cells were analyzed by FACS analysis. The remaining cells were cultured in colony formation assays an additional 14 days with the same growth factors with or without 2 μg/ml mim-1.

MC3T3-E1 cells = test: In vitro matrix mineralization (VonKossa staining, total calcium); format: cell-based; details: 16 days
Method: MC3T3-E1 cells (2.5×10^4 cells/well) were cultured in DMEM/F12 plus 1% FBS in the presence of 10 mM glycerophosphate, 50 μg/ml ascorbic acid and either, 0, 3 or 15 nM (FIGS. 19A–C, respectively) of purified mim-1 for 16 days. […] 200× magnification, data is representative of n=2 experiments. VonKossa staining was confirmed by measuring total calcium in each well. Calcium was acid hydrolyzed, neutralized and measured on a Kodak Ektachem DTSC II and the results illustrated in the bar graph at the right. Calcium measurements are representative single determinations from 2 separate experiments.
MC3T3-E1 cells, seeded at 2.5×10^4 cells/well, were cultured in DMEM/F12 plus 1% FBS in the presence of 10 mM glycerophosphate, 50 μg/ml ascorbic acid and either 0, 3 or 15 nM of purified mim-1 for 16 days. […] VonKossa staining was confirmed by measuring total calcium in each well. The calcium was acid hydrolyzed, neutralized and measured on a Kodak Ektachem DTSC II.

MDA231, breast cancer = test: Cancer cell growth inhibition, cell counts; format: cell-based, human; details: MDA231, three days, 0.5-4 μg/ml mim-1
Method: (§1) Cancer cells (A549, lung cancer; MDA231, Breast cancer; and AD10, ovarian cancer) were cultured for three days in the presence of the indicated concentrations of mim-1. Cells were counted in 10 random grids, and the data is plotted as Percent of Control (no added mim-1). Data are representative of 2 separate experiments.
(§2) Three cancer cell lines (A549, lung cancer; MDA231, breast cancer; and AD10, ovarian cancer) were cultured for three days in the presence of 0 (control), 0.5, 1, 2 and 4 μg/ml of mim-1. Cells were counted in 10 random grids, and the data is plotted as Percent of Control (no added mim-1).

AD10, ovarian cancer = test: Cancer cell growth inhibition, cell counts; format: cell-based, human; details: AD10, three days, 0.5-4 μg/ml mim-1
Method: as §1, §2

A549, lung cancer = test: Cancer cell growth inhibition, cell counts; format: cell-based, human; details: A549, three days, 0.5-4 μg/ml mim-1
Method: as §1, §2

mesenchymal stem cells = test: Cell proliferation of osteoblast precursor cells; format: cell-based; details: concentrations up to 2 μg/ml
[2] = tested on: mesenchymal stem cells (osteoblast precursors); test: Transwell migration assay of calcein-loaded mesenchymal stem cells; format: cell-based
Method: Mesenchymal stem cells were loaded in the presence of 5 μM calcein in αMEM, and the cells washed twice with media. Cells were plated at 10,000 cells/well in the upper well of Neuroprobe transwell plates. The concentration dependence of mim-1 in migration assays was determined in the transwell migration assay with the indicated concentrations of mim-1 in the bottom chamber. Cells were cultured for 4 hours at 37° C. in a humidified chamber with 5% CO2. Remaining cells were scraped from the upper well and removed. Migration was measured on a fluorescence plate-reader which measures fluorescence in the bottom well and migration was quantified by comparisons with a standard curve generated by serial dilutions of calcein loaded cells plated directly in the bottom chamber. Data is from a single experiment performed in quadruplicate.

[3] = tested on: cbfal binding to osteocalcin promoter in MG63 cells; test: cbfal binding to osteocalcin promoter site, electrophoretic mobility shift assay; format: cell-based, human
Method: (§3) FIG. 17A show cells treated with 2 μg/ml of purified mim-1 for 0, 10, 30, 60, 120, and 240 min washed, lysed and nuclear extracts prepared. A 27 bp oligonucleotide from the osteocalcin proximal cbfal binding site was 5′ end labeled with γ^32P-ATP by T4 kinase. Equivalent amounts of nuclear extracts were incubated with the probe for 30 min and samples resolved on a 5% gel, fixed, dried and binding visualized by autoradiography.
as §3, with “Cells were treated” for “FIG. 17A show cells treated”, “240 min,” for “240 min”, “with ^32P-ATP” for “with γ^32P-ATP”, “by autoradiography for specific binding.” for “by autoradiography.”
Similarly, cells were treated with 0, 0.02, 0.3 and 2.0 μg/ml of mim-1 for 2 hrs and mobility shifts done as discussed.

[4] = tested on: p42/44 MAP-kinase in MG63 cells; test: p42/p44 MAP kinase activation, phospho-specific Western blot; format: cell-based, human
Method: Cells were treated with 2 μg/ml of purified mim-1 for the indicated times, washed, lysed and 25 […] protein resolved on 10% SDS PAGE. Protein was transferred to PVDF membrane and the membranes probed with phospho-specific p42/p44 MAP kinase antibody (New England Biolabs).
Mim-1 also stimulated the increased p42/44 MAP-kinase phosphorylation in a time-dependent manner in MG63 cells. The time dependence of mim-1 activation of MAP kinase by Western analysis with the phospho specific MAP kinase antibody was tested. This antibody detects only the phosphorylated (activated) form of MAP kinase (FIG. 16). Mim-1 stimulates the time dependent activation of MAP kinase with maximal effects at 3 minutes (compare this with 2 μg/ml in FIG. 15). The concentration dependence for activation of MAP kinase was maximal at 1–2 μg/ml (not shown) similar to the effects of mim-1 on tyrosine phosphorylation (FIG. 15).

mouse marrow macrophage = test: Osteoclast-like cell differentiation, mouse marrow macrophage differentiation model; format: cell-based; details: presence of M-CSF and soluble RANKL

B1: mim-1: 35 kD osteoclast secreted chemokine-like protein, SEQ ID NO: 8, homologous with Lect2 (protein, listed as Gallus gallus)
chain: MPALSLIALLSLVSTAFARQWEVHPPQQQGRHWAQICSGNPFNRIRGCDRYGCGNYGASRQGKGEKHKGVDVICTDGSIVYAPFWGQLSGPIRFFHNGNAIDDGVQISGSGYCVKLVCIHPIRYHGQIQKGQQLGRMLPMQKVFPGIVSHIHVENCDQSDPTHLLRPIPDISPPFPQQDAHWAVVCAGNPTNEIRGCKDYGCGYFGAPRRNGKGEKHKGVDVICADGATVYAPFSGELSGPVKFFHNGNAIDDGVGIRGSGFCVKLLCIHPIRYNGRISKGQVLGRMLPMQRVFPGIISHIHVENCDRSDPTSNLERGKGESEMEV
modifications: amino acid sequence of mim-1 protein
[1]
  Vitamin D receptor binding to the VDRE: stimulated Vitamin D receptor binding to the VDRE in a time dependent manner
Human bone marrow cells
  proportion of CD14+ cells: increase in the proportion of cells that are CD14^+
MC3T3-E1 cells
  concentration of maximal effect on mineralization: 0.5 µg/mL
MDA231, breast cancer
  inhibition of cell growth: concentration dependent inhibition of cell growth
AD10, ovarian cancer
  inhibition of cell growth: concentration dependent inhibition of cell growth
A549, lung cancer
  inhibition of cell growth: concentration dependent inhibition of cell growth
Mesenchymal stem cells
  effect on cell proliferation: no effect
[2]; 4 hours, purified mim-1 in bottom chamber
  concentration of maximal effect on mesenchymal stem cell migration: approximately 100 ng/ml
[2]; migration versus tyrosine phosphorylation
  concentration to stimulate migration lower than that to stimulate tyrosine phosphorylation: five- and ten-fold
[3]; 20 ng/ml mim-1, 2 hrs
  cbfal binding above control levels: ~2 fold
[3]; 20 ng/ml versus tyrosine phosphorylation
  concentration to stimulate cbfal binding lower than that to stimulate tyrosine phosphorylation: 5–10 fold
[3]; 2 μg/ml mim-1
  time of maximal cbfal binding: 2 h
[3]; 2 μg/ml mim-1, MG63 cells
  increase in binding of cbfal transcription factor to osteocalcin oligonucleotide probe: five-fold
[3]; 2 μg/ml mim-1, by 4 hours
  decrease in cbfal binding from maximum: ~30%
[4]; 2 μg/ml mim-1
  time of maximal activation of MAP kinase: 3 min
[4]; not shown
  concentration of maximal activation of MAP kinase: 1 to 2 µg/mL
Mouse marrow macrophage
  osteoclast-like cell differentiation: effectively blocks osteoclast-like cell differentiation
